Test [1] deals with pUL47 (RB-1B) domain 71-185 fused to the GAL4 DNA-binding domain (Marek's Disease Virus (Gallid alphaherpesvirus 2), strain RB-1B). The experiment in a line: two-hybrid; SR mutants and Δ71-185 of pUL47 in pGBKT7 against p32(M9); β-galactosidase coloration and liquid β-galactosidase quantification relative to full-length pUL47 (1-808), triplicates over three experiments (Fig 4B, 4C).

In test [2] the target is full-length pUL47 (RB-1B) with SR motif 4 mutated to AA, fused to the GAL4 DNA-binding domain (Marek's Disease Virus (Gallid alphaherpesvirus 2), strain RB-1B). Described as above.
In test [3] the target is full-length pUL47 (RB-1B) with SR motif 3 mutated to AA, fused to the GAL4 DNA-binding domain (Marek's Disease Virus (Gallid alphaherpesvirus 2), strain RB-1B). The description is as above.
The target in test [4] is chicken p32/C1QBP/gC1qR clone M9 (residues 76-278) fused to the GAL4 activation domain (UniProt A0A8V1AMS0). Briefly: yeast two-hybrid, liquid β-galactosidase (ONPG) assay. As to conditions: triplicates over three independent experiments; for response: parent: 16.2.

From paper PMC12380274 come the findings set out here.

“chicken p32/C1QBP/gC1qR clone M9 (residues 76-278) fused to the GAL4 activation domain (from UniProt A0A8V1AMS0 76-278) (domain or fragment)” came in with a β-galactosidase signal, percent of full-length pUL47 in test [1] of 16%. The reduction of β-galactosidase signal against full-length pUL47 in test [2] and in test [3] was 30% each time. With “pUL47 (RB-1B) domain 71-185 fused to the GAL4 DNA-binding domain SR3 (Ser-Arg to Ala-Ala); SR4 (Ser-Arg to Ala-Ala)”, the response in test [4] was determined as 3.7 % vs 1-808.

On to “pUL47 (RB-1B) domain 71-185 fused to the GAL4 DNA-binding domain SR1 (Ser-Arg to Ala-Ala); SR2 (Ser-Arg to Ala-Ala)”, for which the response in test [4] is 24 % vs 1-808. As to “pUL47 (RB-1B) domain 71-185 fused to the GAL4 DNA-binding domain SR1 (SR motif 1, Ser-Arg to Ala-Ala)”, the response in test [4] came to 25.4 % vs 1-808. Take “pUL47 of Marek's Disease Virus (RB-1B), full length, fused to the GAL4 DNA-binding domain (pGBKT7-UL47) SR3 (Ser-Arg to Ala-Ala); SR4 (Ser-Arg to Ala-Ala)”: the percent of parent in test [4] (parent: 100) came to 71.2 % vs 1-808. Take “pUL47 (RB-1B) domain 71-185 fused to the GAL4 DNA-binding domain SR6 (SR motif 6, Ser-Arg to Ala-Ala)”: the response in test [4] turned out to be 8.2 % vs 1-808. Take “pUL47 (RB-1B) domain 71-185 fused to the GAL4 DNA-binding domain SR5 (SR motif 5, Ser-Arg to Ala-Ala)”: in test [4], the response came to 20.4 % vs 1-808. Same read-out and setting: then “pUL47 (RB-1B) domain 71-185 fused to the GAL4 DNA-binding domain SR5 (Ser-Arg to Ala-Ala); SR6 (Ser-Arg to Ala-Ala)”, with 10.1 % vs 1-808. For “pUL47 (RB-1B) domain 71-185 fused to the GAL4 DNA-binding domain SR2 (SR motif 2, Ser-Arg to Ala-Ala)”, in test [4], the response was 13 % vs 1-808.
